Source: PMC10393062

What was measured:
Lck-mTurquoise2-iLID = test: light-induced recruitment of a cytosolic prey to a plasma membrane bait (live-cell spinning disk microscopy); HeLa cells; 1 pulse of 440 nm laser light at 20% for 1 s; change in cytosolic intensity of the prey in percent, measured 20 s after stimulation
Venus-iLID-CaaX [1] = test: as above
Venus-iLID-CaaX [2] = test: light-induced recruitment of a cytosolic prey to a plasma membrane bait (live-cell confocal microscopy); HeLa cells, 37°C; photo-activation with 488 nm laser light (1% intensity) every 2.5 s for 2 min; normalized membrane to cytosol intensity ratio of the prey; t½ ON and OFF from a mono-exponential fit to the mean

SspB-mScarlet-I (from UniProt P0AFZ3 1-165) (natural protein)
median change in cytosolic intensity (recruitment efficiency) (Lck-mTurquoise2-iLID): 36.7% | mean change in cytosolic intensity (recruitment efficiency) (Venus-iLID-CaaX [1]): 25.5% | t½ OFF of recruitment (after 488 nm light) (Venus-iLID-CaaX [2]): 20.3 s | t½ ON of recruitment (488 nm light) (Venus-iLID-CaaX [2]): 5.14 s
